Experiments:
HLA-DRB1*0401 (human) = assay: radioligand binding
HLA-DRB1*0404 (human) = assay: radioligand binding

Substance: tyrosinase 365-381D (peptide)
- IC50 (HLA-DRB1*0401 (human)): 17 nM
- IC50 (HLA-DRB1*0404 (human)): 31 nM

From article PMC2363969, “gp100/pmel17 and tyrosinase encode multiple epitopes recognized by Th1-type CD4+T cells” (British Journal of Cancer, 2001)
